The data set concerns the molecule itself. The data set is described as follows: gel filtration and gel analysis with and without DTT (self-association).

The values that follow come from patent US20120207777A1 (Novartis, published 2012).

B1: Recombinant His-tagged AcfD (orf3526) from strain IHE3034 without a leader peptide (other)
chain: CDGGGSGSSSDTPSVDSGSGTLPEVKPDPTPTPEPTPEPTPDPEPTPDPTPDPEPTPEPEPEPVPTKTGYLTLGGSQRVTGATCNGESSDGFTFTPGNTVSCVVGSTTIATFNTQSEAARSLRAVDKVSFSLEDAQELANSENKKTNAISLVTSSDSCPADAEQLCLTFSSVVDRARFEKLYKQIDLATDNFSKLVNEEVENNAATDKAPSTHTSTVVPVTTEGTKPDLNASFVSANAEQFYQYQPTEIILSEGQLVDSLGNGVAGVDYYTNSGRGVTDENGKFSFSWGETISFGIDTFELGSVRGNKSTIALTELGDEVRGANIDQLIHRYSTTGQNNTRVVPDDVRKVFAEYPNVINEIINLSLSNGATLDEGDQNVVLPNEFIEQFKTGQAKEIDTAICAKTDGCNEARWFSLTTRNVNDGQIQGVINKLWGVDTNYQSVSKFHVFHDSTNFYGSTGNARGQAVVNISNSAFPILMARNDKNYWLAFGEKRAWDKNELAYITEAPSIVQPENVTRDTATFNLPFISLGQVGEGKLMVIGNPHYNSILRCPNGYSWGGGVNSKGECTLSGDSDDMKHFMQNVLRYLSNDIWQPNTKSIMTVGTNLENVYFKKAGQVLGNSAPFAFHEDFTGITVKQLTSYGDLNPEEIPLLILNGFEYVTQWSGDPYAVPLRADTSKPKLTQQDVTDLIAYLNKGGSVLIMENVMSNLKEESASSFVRLLDAAGLSMALNKSVVNNDPQGYPDRVRQRRATGIWVYERYPAADGAQPPYTIDPNTGEVTWKYQQDNKPDDKPKLEVASWQEEVEGKQVTRYAFIDEAEYTTEESLEAAKAKIFEKFPGLQECKDSTYHYEINCLERRPGTDVPVTGGMYVPRYTQLNLDADTAKAMVQAADLGTNIQRLYQHELYFRTKGSKGERLNSVDLERLYQNMSVWLWNDTKYRYEEGKEDELGFKTFTEFLNCYANDAYAGGTKCSADLKKSLVDNNMIYGDGSSKAGMMNPSYPLNYMEKPLTRLMLGRSWWDLNIKVDVEKYPGSVSAKGESVTENISLYSNPTKWFAGNMQSTGLWAPAQQDVTIKSSASVPVTVTVALADDLTGREKHEVALNRPPRVTKTYTLEANGEVTFKVPYGGLIYIKGDSKDDVSANFTFTGVVKAPFYKDGEWKNDLDSPAPLGELESASFVYTTPKKNLEASNFTGGVAEFAKDLDTFASSMNDFYGRNDEDGKHRMFTYKNLTGHKHRFTNDVQISIGDAHSGYPVMNSSFSTNSTTLPTTPLNDWLIWHEVGHNAAETPLNVPGATEVANNVLALYMQDRYLGKMNRVADDITVAPEYLDESNGQAWARGGAGDRLLMYAQLKEWAEENFDIKQWYPDGELPKFYSDRKGMKGWNLFQLMHRKARGDDVGNSTFGGKNYCAESNGNAADTLMLCASWVAQADLSEFFKKWNPGASAYQLPGATEMSFQGGVSSSAYSTLASLKLPKPEKGPETINKVTEHKMSAE
notes: Expressed without the leader peptide; also called 3526 (his tag, leader peptide removed); not shown: His tag
B1: the binding result was “binds”.
